Assay: Co-IP and immunoblot, WSN-infected A549
Conditions: glycan lost; control: si-ctrl

B1: interferon regulatory factor-5 (IRF5): si-OGT (protein)
parent chain: MNQSIPVAPTPPRRVRLKPWLVAQVNSCQYPGLQWVNGEKKLFCIPWRHATRHGPSQDGDNTIFKAWAKETGKYTEGVDEADPAKWKANLRCALNKSRDFRLIYDGPRDMPPQPYKIYEVCSNGPAPTDSQPPEDYSFGAGEEEEEEEELQRMLPSLSLTEDVKWPPTLQPPTLQPPVVLGPPAPDPSPLAPPPGNPAGFRELLSEVLEPGPLPASLPPAGEQLLPDLLISPHMLPLTDLEIKFQYRGRPPRALTISNPHGCRLFYSQLEATQEQVELFGPISLEQVRFPSPEDIPSDKQRFYTNQLLDVLDRGLILQLQGQDLYAIRLCQCKVFWSGPCASAHDSCPNPIQREVKTKLFSLEHFLNELILFQKGQTNTPPPFEIFFCFGEEWPDRKPREKKLITVQVVPVAARLLLEMFSGELSWSADSIRLQISNPDLKDRMVEQFKELHHIWQSQQRLQPVAQAPPGAGLGVGQGPWPMHPAGMQ
other: ubiquitination: decreases
